The text below walks through data of the RNAGym collection of RNA variant scans (doi:10.1093/molbev/msab373).

B1: Azoarcus group I ribozyme (parent)
chain: GUGCCUUGCGCCGGGAAACCACGCAAGGGAUGGUGUCAAAUUCGGCGAAACCUAAGCGCCCGCCCGGGCGUAUGGCAACGCCGAGCCAAGCUUCGGCGCCUGCGCCGAUGAAGGUGUAGAGACUAGACGGCACCCACCUAAGGCAAACGCUAUGGUGAAGGCAUAGUCCAGGGAGUGGCGAAAGUCACACAAACCGG

In the data set the parent is B1. Put plainly: reverse-splicing fitness (ratio to wild type); higher = more active; in vitro selection; Mg2+ level not given. Put shortly:
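An in vitro group I ribozyme library with randomized positions was T7-transcribed and gel-purified. In triplicate, 10 pmol RNA in EPPS pH 7.5 was reacted with 50 pmoles of a 30-nt RNA substrate for 1 h at 37 °C across several added MgCl2 levels (1–48 mM), then stopped with EDTA. Products were reverse transcribed from a substrate-complementary primer, PCR-amplified and sequenced (HiSeq 4000). Fitness is a variant's read proportion after selection over that before, normalised to wild type.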
As to A111C C150A C169A U176A, the reverse-splicing fitness is 0.0182.
Regarding C82U A111U A120G C150A C169U U176A, the reverse-splicing fitness came to 0.0209.
Take A111C A120C A145G C150G C169A U176G: the reverse-splicing fitness came out at 0.00793.
Regarding C82G A111G A120G A145U C150A C169G U176G, the reverse-splicing fitness amounted to 0.00454.
As to C82G A120C C150A C169G U176G, the reverse-splicing fitness stood at 0.00501.
The result for A111C A145U C150G C169G U176A reads 0.00777; that for C82G A111U A145U C150A C169U, 0.00955; that for A111U A120G A145U C169U U176C, 0.0495.
The result for A111C A120U C169U reads 0.0792; that for C82U A120C A145G C150A C169U, 0.0116.
To C82A A111C A120C A145C C169U belongs 0.0116; to A111C A120U A145U C150A U176G, 0.0123; to C82G A120U A145G C169G U176A, 0.00368.
With C82U A111U, the reverse-splicing fitness was found to be 0.327.
For the variant C82G A111G A120C A145C C150G U176A, the reverse-splicing fitness was 0.00574.
To A111U A120C A145U C150A belongs 0.061; to C82U A111C A120C A145G C150U C169G U176C, 0.0151.
To C82G A120U A145U U176A belongs 0.0782; to A111G A120U A145G C150A C169U U176G, 0.00242.
Regarding C82A A111G A120G C150G C169A U176A, the reverse-splicing fitness was found to be 0.0117.
Consider C82A A111U A120G A145C C169A U176C, for which the reverse-splicing fitness is 0.00818.
The result for C82U A111C A120G A145U C150U C169G U176A reads 0.00992.
The result for A111U A120U C150G C169G U176C reads 0.00285.
The result for C82U A111U A120G A145U C150U U176G reads 0.00443; that for C82A A120G A145G C150U U176A, 0.0104; that for A111C A120G, 0.185.
On to C82U A120U A145G C150U C169U U176A, for which the reverse-splicing fitness turned out to be 0.00396.
As to C82G A120C A145C C150U C169A U176C, the reverse-splicing fitness worked out at 0.00587.
The result for C82A A111C A120C C150U C169A U176G reads 0.00849; that for C82A A111U A120G A145C C150A C169U, 0.00834.
On to C82U A120G C150A C169U U176G, for which the reverse-splicing fitness is 0.00606.
Take C82A A111U A120U A145G C150G: the reverse-splicing fitness is 0.00842.
C82A A111G A145U C150G C169A: the reverse-splicing fitness came out at 0.00833.
To C82A A120U A145C C150A C169U U176C belongs 0.00188; to C82G A111C A120C A145U C150U U176C, 0.02.
The result for A111C A120U A145C C150U C169U U176G reads 0.00251.
To C82A A120G C169G U176C belongs 0.0274.
Consider C82A A111C A120G A145U C150G C169U, for which the reverse-splicing fitness was 0.00788.
To C82A A120G A145U C150G C169G U176C belongs 0.00552.
Regarding C150A C169A, the reverse-splicing fitness was found to be 0.0251.
Regarding A111U A120U A145G C150A C169A U176G, the reverse-splicing fitness came to 0.00281.
The result for C82U A111G A120G A145G C150A U176A reads 0.0088; that for C82G A111U A120G C150U C169G, 0.0112; that for C82G A111C A120U A145G C150U U176A, 0.0115.
The result for C82G A111G A120G A145U C150G C169U U176A reads 0.0117.
As to C82G A111G C150A C169G U176G, the reverse-splicing fitness turned out to be 0.00751.
With A111C A120U A145U C169A U176A, the reverse-splicing fitness amounted to 0.00268.
For the variant C82A A111U A120U A145U C150G, the reverse-splicing fitness was 0.00631.
Regarding A111G A120G A145G C150A C169G U176A, the reverse-splicing fitness came to 0.0262.
The result for C82A A111U A120C A145C C150G C169U U176C reads 0.0102.
The result for C82U A111C A120C C150U C169U reads 0.0109; that for A111C A145C C150G C169G U176G, 0.0057.
As for A111G A120C A145C C169G, the reverse-splicing fitness came to 0.0105.
The result for C82U A111C A145C C150G C169A U176C reads 0.0077; that for C82U A111C A120C C150U C169G U176C, 0.0153.
To C82G A145G C150G C169G U176C belongs 0.0146.
To A111U A120U A145U C150A U176A belongs 0.0229; to A111U A120G A145C C150A U176C, 0.0112; to C82U A111U C169A U176C, 0.02.
On to C82G A111U A120C A145C C150G C169G U176C, for which the reverse-splicing fitness is 0.00909.
To C82G A145C C150U C169A U176A belongs 0.0111; to C82U A111C A120G A145G C150A U176C, 0.017; to C82U A111U C150G, 0.0213.
The result for A111G A120C A145U C169A U176G reads 0.00333; that for C82U A120C A145C C169U, 0.0225.
To C82A A111U A120G A145G U176C belongs 0.0211; to C82G A111U A120G C150U C169A U176G, 0.00614.
Consider C82G A120U A145C C169G, for which the reverse-splicing fitness is 0.00562.
As to C82A A145G C150G C169A, the reverse-splicing fitness is 0.00856.
In the case of A111U A120C A145U C150U C169A U176C, the reverse-splicing fitness came to 0.00725.
The result for C82A C150G C169G U176G reads 0.00581; that for C82A A111G A120U A145C C169U U176C, 0.00282.
As to A111G A120G A145C C150A C169U U176G, the reverse-splicing fitness was determined as 0.00508.
The result for C82U A111U A145G C150G C169U U176G reads 0.00654; that for C82A A111C A120G C150G U176C, 0.0155; that for A145C C169A U176C, 0.05.
The result for C82A A111C A120U A145U C150G C169A reads 0.00497; that for C82U A111U A145C C150G, 0.0299.
The result for A111G A120G A145G C169G reads 0.329.
Consider A111G A120U A145C C169A U176A, for which the reverse-splicing fitness came out at 0.00226.
For the variant A120G C150U C169A U176G, the reverse-splicing fitness came to 0.00612.
C82G C150U C169U: the reverse-splicing fitness was 0.0143.
As to C82G A111C A120C A145G C150G, the reverse-splicing fitness came out at 0.0102.
To C82G A111C A120U A145G C169A belongs 0.00335.
